Measurements taken from patent US20260258125A1.

Key:
[1] = target: membrane-bound endogenous human CEACAM5 and CEACAM6 on BxPC3 cells; assay: cell-based or functional assay; set-up: unit not given beside the values
[2] = target: human CEACAM5 on 293T cells (293T-huCEACAM5 cells) (human) (UniProt P06731); assay: cell-based or functional assay; set-up: unit not given beside the values
[3] = target: membrane-bound endogenous human CEACAM5 and CEACAM6 on LS 174T cells; assay: cell-based or functional assay; set-up: unit not given beside the values
[4] = target: human CEACAM6 on 293T cells (293T-huCEACAM6 cells) (human) (UniProt P40199); assay: cell-based or functional assay; set-up: unit not given beside the values
[5] = target: membrane-bound endogenous human CEACAM5 and CEACAM6 on BxPC3 cells; assay: cell-based or functional assay
[6] = target: human CEACAM5 on 293T cells (293T-huCEACAM5 cells) (human) (UniProt P06731); assay: cell-based or functional assay
[7] = target: membrane-bound endogenous human CEACAM5 and CEACAM6 on LS 174T cells; assay: cell-based or functional assay
[8] = target: human CEACAM6 on 293T cells (293T-huCEACAM6 cells) (human) (UniProt P40199); assay: cell-based or functional assay
[9] = target: antigen of the anti-CEACAM5/6 antibodies on HPAC cells; assay: cell-based or functional assay
[10] = target: membrane-bound endogenous human CEACAM5 and CEACAM6 on LS 174T cells; assay: flow cytometry on LS 174T cells
[11] = target: membrane-bound endogenous human CEACAM5 and CEACAM6 on BxPC3 cells; assay: flow cytometry on BxPC3 cells

Chain of human CEACAM6 on 293T cells (293T-huCEACAM6 cells) (human) (P40199 35-320): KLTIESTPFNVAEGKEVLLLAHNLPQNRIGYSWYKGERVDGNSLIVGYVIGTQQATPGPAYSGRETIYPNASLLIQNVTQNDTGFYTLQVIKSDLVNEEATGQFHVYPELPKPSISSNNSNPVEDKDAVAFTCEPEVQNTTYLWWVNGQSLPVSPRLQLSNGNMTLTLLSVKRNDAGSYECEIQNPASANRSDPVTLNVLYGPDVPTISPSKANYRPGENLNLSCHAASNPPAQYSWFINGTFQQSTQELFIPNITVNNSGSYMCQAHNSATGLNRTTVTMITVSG
Chain of human CEACAM5 on 293T cells (293T-huCEACAM5 cells) (human) (P06731 35-685 limits assumed): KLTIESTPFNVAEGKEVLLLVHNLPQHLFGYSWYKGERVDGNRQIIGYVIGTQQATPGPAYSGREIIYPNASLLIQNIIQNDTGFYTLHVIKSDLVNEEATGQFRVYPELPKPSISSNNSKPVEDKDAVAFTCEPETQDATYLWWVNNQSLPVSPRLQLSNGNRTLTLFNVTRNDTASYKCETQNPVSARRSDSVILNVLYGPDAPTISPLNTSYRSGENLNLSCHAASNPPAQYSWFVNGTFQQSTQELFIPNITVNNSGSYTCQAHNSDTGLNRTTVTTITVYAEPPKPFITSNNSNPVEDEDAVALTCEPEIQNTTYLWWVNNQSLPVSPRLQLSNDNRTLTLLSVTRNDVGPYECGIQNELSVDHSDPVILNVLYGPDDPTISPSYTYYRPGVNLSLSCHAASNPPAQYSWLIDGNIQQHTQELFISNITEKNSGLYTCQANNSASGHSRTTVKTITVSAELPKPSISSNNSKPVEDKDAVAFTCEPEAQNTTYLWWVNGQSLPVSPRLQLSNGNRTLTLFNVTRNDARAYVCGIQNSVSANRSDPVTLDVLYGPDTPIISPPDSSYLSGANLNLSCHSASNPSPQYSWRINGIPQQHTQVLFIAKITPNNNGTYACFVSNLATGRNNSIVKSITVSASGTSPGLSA

Row | Internalization of pHAb-dye-labelled antibody, MFI (37° C.-4° C.)/DAR [5] | Internalization of pHAb-dye-labelled antibody, MFI (37° C.-4° C.)/DAR [6] | Internalization of pHAb-dye-labelled antibody, MFI (37° C.-4° C.)/DAR [7] | Internalization of pHAb-dye-labelled antibody, MFI (37° C.-4° C.)/DAR [8] | Internalization of pHAb-dye-labelled antibody, MFI (37° C.-4° C.)/DAR [9] | EC50 [10] | EC50 [11] | Substance | IC50 of in vitro cytotoxicity of the ADC (CellTiter-Glo, 6 days) [1] | IC50 of in vitro cytotoxicity of the ADC (CellTiter-Glo, 6 days) [2] | IC50 of in vitro cytotoxicity of the ADC (CellTiter-Glo, 6 days) [3] | IC50 of in vitro cytotoxicity of the ADC (CellTiter-Glo, 6 days) [4]
1 | – | – | – | – | – | – | – | IgG-MMAE | 100 | 66 | 700 | 72
2 | 0 | 888 | 468 | 975 | 3010 | – | – | non-relevant IgG isotype control (Crownbio, hIgG1) (antibody) | – | – | – | –
3 | 8230 | – | 1320 | – | – | 1.74 nM | 3.06 nM | PR303561 (Tusamitamab) (antibody) | – | – | – | –
